# Reference: paper PMC5311487
# T1: MEC-8 RRM1 (Caenorhabditis elegans, UniProt G5ECJ4 28-123, C54A;C102A)
# T1 sequence: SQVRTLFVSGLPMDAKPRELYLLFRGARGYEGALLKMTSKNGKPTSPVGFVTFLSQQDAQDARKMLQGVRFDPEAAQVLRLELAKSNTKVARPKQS
# Target: T1, MEC-8 RRM1
# Test: ITC
row,Binder,Kd [nM]
1,AGCACAUUUU (ssRNA) [6-mer + 4U],1750 ± 30
2,ACCACAUUUUUUUUACCACA (ssRNA) [10-nt spacer (G2C/G16C)],1560 ± 10
3,AGCACAUUUUUUUUAUCACA (ssRNA) [10-nt spacer (WT/G16U)],260 ± 80
4,AGCACAUUUUUUUUAGCAUA (ssRNA) [10-nt spacer (WT/C19U)],450 ± 30
5,AUCACA (ssRNA) [6-mer (G2U)],20400 ± 800
6,AAUCCAUUGCACUCCGGAUUU (structured_RNA) [U1A stem-loop],240 ± 20
7,AGCACAUUAGCACA (ssRNA) [4-nt spacer],380 ± 90
8,AGCACAUUUUAGCACA (ssRNA) [6-nt spacer],330 ± 10
9,AGCACAUUUUUUAGCACA (ssRNA) [8-nt spacer],180 ± 40
10,AGCACAUUUUUUUUAGCACA (ssRNA) [10-nt spacer],150 ± 40
11,AGCACAUUUUUUUUUUAGCACA (ssRNA) [12-nt spacer],80 ± 20
12,AGCACAUUUUUUUUUUUUAGCACA (ssRNA) [14-nt spacer],110 ± 70
13,AUCACAUUUUUUUUAUCACA (ssRNA) [10-nt spacer (G2U/G16U)],1290 ± 40

# Target: T1, MEC-8 RRM1
# Test: ITC
# Remark: another data set of the same source
row,Binder,Kd [nM]
1,AACACAUUUUUUUUAACACA (ssRNA) [10-nt spacer (G2A/G16A)],900 ± 100
